Source: publication PMC10833452 (Protein & Cell, 2023)

B1: S2X35 recombinant antibody (human IgG constant region) (antibody, V domains shown)
VH: QVQLVQSGAEVKKPGASVKVSCKASGYTFTNYGISWVRQAPGQGLEWMGWISAYKGNTNYAQKLQGRVTMTTDTSTSTAYMELRSLRSDDTAVYYCARPDYQVLGYDFWIGYYGMDVWGQGTTVIVSS
VL: QSVLTQPPSVSGAPGQRVTISCTGSSSNIGAGYDVHWYQQLPGTAPKLLIYGNTNRPSGVPDRFSGSKSGTSASLAITGLQAEDEADYYCQSYDSSLSGSEVVFGGGTKLTVL
B2: S2E12 recombinant antibody (human IgG constant region) (antibody, V domains shown)
VH: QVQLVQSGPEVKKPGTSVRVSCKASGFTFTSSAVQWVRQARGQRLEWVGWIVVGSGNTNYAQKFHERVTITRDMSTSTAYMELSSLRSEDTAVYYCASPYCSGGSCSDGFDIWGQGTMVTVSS
VL: DIVLTQTPGTLSLSPGERATLSCRASQSVSSSYLAWYQQKPGQAPRLLIYGASSRATGIPDRFSGSGSGTDFTLTISRLEPEDFAVYYCQQYVGLTGWTFGQGTKVEIK
B3: 8H12 monoclonal antibody (mouse IgG) (antibody, V domains shown)
VH: EVKLEESGGGLVQPGGSMKLSCAASGFTFSDAWMDWVRQSPEKGLEWVAQIRRKANNHATYYAESVKGRFTISRDDSKSSVYLQMNSLRAEDTGIYYCIRGMTYAMDFWGQGTSVTVSS
VL: DIVMTQFQKFMSTSVGDRVSITCKASQNVRTAVAWYQQKPGQSPKAMIYLASNRHRGVPDRFTGSGCGTDFTLTISNVQCEDLADYFCLQHRNYPLTFGGGTKLEIK
B4: VacW-209 recombinant antibody (human IgG constant region) (antibody, V domains shown)
VH: QVQLVESGGGVVQPGRSLRLSCAASGFTFSSIAMHWVRQAPGKGLEWVAVMSFDGSIKYYGDSVKGRFTISRDNSKSTLYLQMNSLRAEDTAVYYCARGVQGYYDRSGYYNLDYNYGMDVWGQGTTVTVSS
VL: QSVLTQPPSVSGAPGQRVTISCTGSSSNIGAGYDVHWYQQLPGTAPKLLIYGNSNRPSGVPDRFSGSKSGTSASLAITGLQAEDEADYYCQSYDSSLSGWVFGGGTKLTVL
B5: S2X35 Fab (Fab, V domains shown)
VH: QVQLVQSGAEVKKPGASVKVSCKASGYTFTNYGISWVRQAPGQGLEWMGWISAYKGNTNYAQKLQGRVTMTTDTSTSTAYMELRSLRSDDTAVYYCARPDYQVLGYDFWIGYYGMDVWGQGTTVIVSS
VL: QSVLTQPPSVSGAPGQRVTISCTGSSSNIGAGYDVHWYQQLPGTAPKLLIYGNTNRPSGVPDRFSGSKSGTSASLAITGLQAEDEADYYCQSYDSSLSGSEVVFGGGTKLTVL
B6: S2E12 Fab (Fab, V domains shown)
VH: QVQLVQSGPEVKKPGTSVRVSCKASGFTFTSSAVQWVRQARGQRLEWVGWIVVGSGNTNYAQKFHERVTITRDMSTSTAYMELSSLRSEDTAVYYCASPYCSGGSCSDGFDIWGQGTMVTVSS
VL: DIVLTQTPGTLSLSPGERATLSCRASQSVSSSYLAWYQQKPGQAPRLLIYGASSRATGIPDRFSGSGSGTDFTLTISRLEPEDFAVYYCQQYVGLTGWTFGQGTKVEIK
B7: VacW-209 Fab (Fab, V domains shown)
VH: QVQLVESGGGVVQPGRSLRLSCAASGFTFSSIAMHWVRQAPGKGLEWVAVMSFDGSIKYYGDSVKGRFTISRDNSKSTLYLQMNSLRAEDTAVYYCARGVQGYYDRSGYYNLDYNYGMDVWGQGTTVTVSS
VL: QSVLTQPPSVSGAPGQRVTISCTGSSSNIGAGYDVHWYQQLPGTAPKLLIYGNSNRPSGVPDRFSGSKSGTSASLAITGLQAEDEADYYCQSYDSSLSGWVFGGGTKLTVL

target: T1, SARS-CoV-2 wild-type spike protein ectodomain, prefusion-stabilized trimer (WT-S) (SARS-CoV-2 prototype (MN908947), UniProt P0DTC2, proline substitution at 986 | proline substitution at 987 | GSAS substitution …); test: SPR; conditions: both partners purified

Q: Does B1 bind?
A: Result: binds

Q: Does B2 bind?
A: Result: binds

Q: Does B3 bind?
A: Result: binds

Q: Does B4 bind?
A: Result: binds

target: T1, SARS-CoV-2 wild-type spike protein …; test: cryo-EM structure; conditions: both partners purified

Q: Does B5 bind?
A: Result: binds

Q: Does B6 bind?
A: Result: binds

Q: Does B7 bind?
A: Result: binds
